B1: Ab6: anti-Tn MUC 1 antibody comprising a VH domain according to SEQ ID NO. 28 and a VL domain according to SEQ ID NO. 33 (antibody, V domains shown)
VH: EVQLVESGAEVKKPGASVEVSCQASGYTFTDHAIHWVRQAPGQGLEWMGHFSPGNTDIKYNDKFKGRVTMTVDRSINTAYMELRRLRSDDTAVYYCKTSTFFFDYWGQGTMVTVSS
VL: DIVMTQSPLSLPVTPGEPASISCKSSQSLLNSGDQKNYLTWYLQKPGQSPQLLIYWASTRESGVPDRFSGSGSGTDFTLKISRVEAEDVGVYYCQNDYSYPLTFGGGTKVEIK
modifications: Synthetic sequence: Humanized antibody heavy chain variable region 5E5RHC9; Synthetic sequence: Humanized antibody light chain variable region 5E5RKB
B2: Ab5: anti-Tn MUC 1 antibody comprising a VH domain according to SEQ ID NO. 19 and a VL domain according to SEQ ID NO. 33 (antibody, V domains shown)
VH: EVQLVQSGAEVKKPGESLKISCKISGYIFTDHAIHWVRQMPGKGLEWMGHFSPGNTDIKYNDKFKGQVTLSVDRSINTAYLQWSSLKASDTAIYFCKTSTFFFDYWGQGTRVTVSS
VL: B1 VL
modifications: Synthetic sequence: Humanized antibody heavy chain variable region 5E5RHB10; Synthetic sequence: Humanized antibody light chain variable region 5E5RKB
B3: Ab4: anti-Tn MUC 1 antibody comprising a VH domain according to SEQ ID NO. 9 and a VL domain according to SEQ ID NO. 33 (antibody, V domains shown)
VH: QVQLVQSGAEVKKTGSSVKVSCKASGYTFTDHAIHWVRQAPGQALEWMGHFSPGNTDIKYNDKFKGRVTLTVDRSMSTAYMELSSLRSEDTAMYYCKTSTFFFDYWGQGTMVTVSS
VL: B1 VL
modifications: Synthetic sequence: Humanized antibody heavy chain variable region 5E5RHA8; Synthetic sequence: Humanized antibody light chain variable region 5E5RKB

Columns and labels:
[1] = tested on: ZR-75-1 cell line, which expresses Tn-MUC1; assay: ZR-75-1 cell binding assay by flow cytometry (protocol 6); details: for ZR-75-1 cell binding EC50: flow cytometry, live cells
Experimental: Protocol 6: ZR-75-1 Cell Binding Assay by Flow Cytometry Materials • Wash solution: PBS 0.1% (w/v) sodium azide • Binding buffer: PBS, 10% normal goat serum, 0.1% (w/v) sodium azide) • 96 well U-well microplate Protocol
Exponentially growing cells are suspended by incubation with cell dissociation buffer enzyme-free, Hanks-based (Gibco 13150-016) following the manufacturer's instructions. A cell count/viability is done on a dilution of 10 ul cells+Trypan Blue, 10 ul, with a haemocytomer. The suspension is centrifuged and the cell pellet re-suspended in binding buffer at 3×10^6 per ml. If significant levels of aggregates are present in the cell count, the suspension is filtered to remove aggregates. The cell suspension is dispensed (50 ul/well) in 96 well U-bottom plates and cooled on ice for 10 minutes. Primary antibody (50 ul/well) diluted in binding buffer (typically 1 ug per ml or less) is added to each well and incubated at 4° C. for 1 hour. The microplate is centrifuged 5 min at 300-400 g at 4° C., flicked to remove the supernatant and then the cell pellet re-suspended in 200 uL of wash buffer (PBS, 0.1% sodium azide). Centrifugation and re-suspension are done 4 times in all. After the last centrifugation, cells are re-suspended in 50 uL of binding buffer containing the biotin labelled conjugate 1:250 (kept at −20 C: Biotin-SP-AffiniPure F(ab′)2 Fragment Goat antihuman IgG (H+L); Jackson 109-066-088). Cells are incubated for 1 hour at 4 C, then washed 4 times as before. Cells are resuspended in 50 ul of binding buffer containing Streptavidin, Alexa Fluor® 488 conjugate (Life Technologies s11223) diluted 1:250 and Fixable Viability Dye eFluor® 780 (eBioscience 65-0865) diluted 1:2000, The cells are incubated at 4° C. for 1 hour and then washed 3 times, as above. Cells are then re-suspended in PBS if reading immediately or fixed in 100 ul of paraformaldehyde (2% (w/v) in PBS) and analysed with by flow cytometer (Accuri C6), gating on live cells which have a lower Fixable Viability Dye MFI compared to dead cells.
IgG binding potency to Tn-MUC1 was measured as per protocol 4 and binding to the ZR-75-1 cell line, which expresses Tn-MUC1, was measured as per protocol 6.

Tn-MUC1 (16TR-MUC1-Tn) = assay: Tn-MUC1 binding ELISA (protocol 4); set-up: species or system human; details: for Tn-MUC1 binding EC50: ELISA on 16TR-MUC1-Tn coated plate
[2] = Thermal denaturation assay (protocol 5); format: physicochemical; details: 50% inactivation temperature, 10 minutes heating, read by antigen-binding ELISA

Sequence of Tn-MUC1 (16TR-MUC1-Tn) (P15941 141-460 limits assumed): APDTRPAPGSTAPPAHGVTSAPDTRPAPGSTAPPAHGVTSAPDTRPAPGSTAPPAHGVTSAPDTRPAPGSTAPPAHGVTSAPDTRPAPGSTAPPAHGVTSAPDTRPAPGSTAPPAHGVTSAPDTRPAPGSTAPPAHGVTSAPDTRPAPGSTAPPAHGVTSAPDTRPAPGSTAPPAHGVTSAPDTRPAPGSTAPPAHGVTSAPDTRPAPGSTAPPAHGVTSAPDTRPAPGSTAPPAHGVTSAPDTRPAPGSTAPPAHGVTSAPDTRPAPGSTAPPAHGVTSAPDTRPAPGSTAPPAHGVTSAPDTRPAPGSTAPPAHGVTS

Molecule	ZR-75-1 cell binding EC50 [1]	Tn-MUC1 binding EC50 (Tn-MUC1 (16TR-MUC1-Tn))	TnMUC1 binding potency compared with mouse 5E5 (in words) (Tn-MUC1 (16TR-MUC1-Tn); Tn-MUC1 binding assay data)	Tm [2]	ZR-75-1 binding potency compared with mouse 5E5 (in words) ([1]; flow cytometry EC50 data)
B1	0.0413 µg/mL	0.0198 µg/mL	substantially improved over the mouse 5E5		
B2	0.01842 µg/mL	0.02687 µg/mL		62.58 °C	substantially improved over the mouse 5E5
B3	0.04229 µg/mL	0.07549 µg/mL		65.23 °C	

— patent US10017580B2, “Humanized anti-Tn-MUC1 antibodies and their conjugates” (ADC THERAPEUTICS S.A., priority 2014, dated 2018)
